The supplement of paper PMC7125110
± gives the standard error. For some assays here: Variants at the floor of the assay were thinned out.

B1: glmS ribozyme (parent)
chain: AUAAAAGCGCCAGAACUACAGAAAUGUAGUUGACGAGGAGGAGGUUUAUCGAAUUUUCGGCGGAUGCCUCCAAA

What was measured:
Details in all cases: with glucosamine-6-phosphate
glucosamine-6-phosphate [1] = variants of: B1; assay: kcat; higher = faster cleavage; RNA array
Procedure, shortened: (§1)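 Tiles of sequenced MiSeq chips were imaged over ~14 h at 37 °C. On them, barcoded ribozyme variants had been transcribed in situ by E. coli RNA polymerase and were tracked via a hybridised Cy3 probe while glucosamine-6-phosphate (40 μM to 10 mM) in HEPES/KCl/Mg(OAc)2 buffer flowed in. Per-tile medians, normalised to baseline and to non-cleaving reference variants, were fit to one- or two-exponential decays for kobs, and weighted Michaelis–Menten fits gave kcat and KM.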

glucosamine-6-phosphate [2] = variants of: B1; assay: self-cleavage kobs at 40 uM GlcN6P; higher = faster cleavage; RNA array
Procedure, shortened: as §1

glucosamine-6-phosphate [3] = variants of: B1; assay: KM; higher = weaker cofactor use; RNA array
Procedure, shortened: as §1

glucosamine-6-phosphate [4] = variants of: B1; assay: self-cleavage kobs at 160 uM GlcN6P; higher = faster cleavage; RNA array
Procedure, shortened: as §1

glucosamine-6-phosphate [5] = variants of: B1; assay: self-cleavage kobs at 2500 uM GlcN6P; higher = faster cleavage; RNA array
Procedure, shortened: as §1

glucosamine-6-phosphate [6] = variants of: B1; assay: self-cleavage kobs at 10000 uM GlcN6P; higher = faster cleavage; RNA array
Procedure, shortened: as §1

glucosamine-6-phosphate [7] = variants of: B1; assay: self-cleavage kobs at 640 uM GlcN6P; higher = faster cleavage; RNA array
Procedure, shortened: as §1

Variant	kcat (glucosamine-6-phosphate [1])	self-cleavage kobs at 40 uM GlcN6P (glucosamine-6-phosphate [2])	KM (glucosamine-6-phosphate [3])	self-cleavage kobs at 160 uM GlcN6P (glucosamine-6-phosphate [4])	self-cleavage kobs at 2500 uM GlcN6P (glucosamine-6-phosphate [5])	self-cleavage kobs at 10000 uM GlcN6P (glucosamine-6-phosphate [6])	self-cleavage kobs at 640 uM GlcN6P (glucosamine-6-phosphate [7])
A64U G66U	< 1e-05 s⁻¹	< 1e-05 s⁻¹	–	–	–	–	–
G32C C68U	1.25e-05 ± 1.1e-06 s⁻¹	–	1350 ± 620 µM	< 1e-05 s⁻¹	–	–	–
G29U U65C	6.8e-05 ± 1.9e-05 s⁻¹	–	–	–	6.54e-05 ± 1.3e-05 s⁻¹	5.46e-05 ± 1.2e-05 s⁻¹	–
C16A	0.00334 ± 0.00087 s⁻¹	6.14e-05 ± 1.3e-06 s⁻¹	2630 ± 840 µM	0.000152 ± 5e-06 s⁻¹	0.0017 ± 7.8e-05 s⁻¹	0.00269 ± 8.5e-05 s⁻¹	0.000602 ± 3.1e-05 s⁻¹
A14G A48U	0.00132 ± 0.00027 s⁻¹	3.34e-05 ± 1.3e-05 s⁻¹	2320 ± 780 µM	6.56e-05 ± 1.5e-05 s⁻¹	0.000889 ± 0.00016 s⁻¹	0.000999 ± 0.00013 s⁻¹	0.000335 ± 5.6e-05 s⁻¹
U30G G43U	1.16e-05 ± 2.3e-06 s⁻¹	–	–	< 1e-05 s⁻¹	–	–	< 1e-05 s⁻¹
G41U U55A	0.000121 ± 2e-05 s⁻¹	–	–	5.55e-05 ± 1.3e-05 s⁻¹	0.000105 ± 3.7e-05 s⁻¹	0.000105 ± 1.7e-05 s⁻¹	0.000132 ± 2e-05 s⁻¹
A33G C67A	< 1e-05 s⁻¹	< 1e-05 s⁻¹	–	–	–	< 1e-05 s⁻¹	–
C34U A48G C68A	< 1e-05 s⁻¹	< 1e-05 s⁻¹	–	–	< 1e-05 s⁻¹	–	–
G37U U65G	< 1e-05 s⁻¹	< 1e-05 s⁻¹	1260 ± 500 µM	< 1e-05 s⁻¹	–	–	< 1e-05 s⁻¹
G38U U47G	< 1e-05 s⁻¹	< 1e-05 s⁻¹	–	–	–	–	–
A14C A42G	0.0097 ± 0.0025 s⁻¹	0.000181 ± 2e-05 s⁻¹	2690 ± 890 µM	0.000475 ± 7.2e-05 s⁻¹	0.00494 ± 0.00075 s⁻¹	0.00788 ± 0.0011 s⁻¹	0.00154 ± 0.00023 s⁻¹
C10G U56A	< 1e-05 s⁻¹	–	–	< 1e-05 s⁻¹	–	–	< 1e-05 s⁻¹
A6G A53U	0.000303 ± 3.8e-05 s⁻¹	–	1940 ± 560 µM	–	0.000191 ± 2.7e-05 s⁻¹	0.000241 ± 3.5e-05 s⁻¹	6.78e-05 ± 1.6e-05 s⁻¹
G51U U57A	< 1e-05 s⁻¹	–	–	–	< 1e-05 s⁻¹	< 1e-05 s⁻¹	–
A6U U49A C71G	3.45e-05 ± 8.5e-06 s⁻¹	–	–	–	–	–	–
G37A A52G	0.000162 ± 8.6e-06 s⁻¹	–	3420 ± 440 µM	–	6.77e-05 ± 1.2e-05 s⁻¹	0.000121 ± 1.5e-05 s⁻¹	–
A14U A15G C34G C50A G62U	1.29e-05 ± 5.5e-06 s⁻¹	–	–	–	–	–	–
A6C U56G	4.98e-05 ± 4.1e-06 s⁻¹	–	4200 ± 920 µM	< 1e-05 s⁻¹	–	3.5e-05 ± 1.3e-05 s⁻¹	–

Variant	kcat (glucosamine-6-phosphate [1])	self-cleavage kobs at 40 uM GlcN6P (glucosamine-6-phosphate [2])	KM (glucosamine-6-phosphate [3])	self-cleavage kobs at 160 uM GlcN6P (glucosamine-6-phosphate [4])	self-cleavage kobs at 2500 uM GlcN6P (glucosamine-6-phosphate [5])	self-cleavage kobs at 10000 uM GlcN6P (glucosamine-6-phosphate [6])	self-cleavage kobs at 640 uM GlcN6P (glucosamine-6-phosphate [7])
A53U G59A	4.83e-05 ± 6.3e-06 s⁻¹	< 1e-05 s⁻¹	–	–	3.5e-05 ± 1.2e-05 s⁻¹	4.2e-05 ± 8.2e-06 s⁻¹	–
A14C C16G	8.6e-05 ± 5.5e-06 s⁻¹	–	438 ± 180 µM	–	8.11e-05 ± 8.9e-06 s⁻¹	7.9e-05 ± 6.9e-06 s⁻¹	4.86e-05 ± 1.2e-05 s⁻¹
A15C A42G	0.00745 ± 0.00078 s⁻¹	0.000206 ± 3.8e-05 s⁻¹	1450 ± 220 µM	0.000843 ± 0.00038 s⁻¹	0.00411 ± 0.001 s⁻¹	0.00721 ± 0.0015 s⁻¹	0.00216 ± 0.00062 s⁻¹
C50U C71G	3.46e-05 ± 1.4e-05 s⁻¹	–	–	–	–	–	4.43e-05 ± 1e-05 s⁻¹
A14C C68A	2.76e-05 ± 9.8e-06 s⁻¹	–	–	–	3.95e-05 ± 1.8e-05 s⁻¹	–	–
A14C G29U	0.000857 ± 0.00017 s⁻¹	4.05e-05 ± 1.2e-05 s⁻¹	1650 ± 550 µM	5.99e-05 ± 1.3e-05 s⁻¹	0.000556 ± 8.5e-05 s⁻¹	0.000697 ± 0.0001 s⁻¹	0.000267 ± 3.9e-05 s⁻¹
G13U A52U	1.58e-05 ± 2.6e-06 s⁻¹	< 1e-05 s⁻¹	–	< 1e-05 s⁻¹	–	–	–
A12G C68U	0.000271 ± 1.9e-05 s⁻¹	–	2400 ± 390 µM	3.11e-05 ± 1.2e-05 s⁻¹	0.000137 ± 1.5e-05 s⁻¹	0.000219 ± 1.5e-05 s⁻¹	5.55e-05 ± 6.8e-06 s⁻¹
A14U U69A	0.000113 ± 2e-05 s⁻¹	–	802 ± 390 µM	–	7.13e-05 ± 1.7e-05 s⁻¹	0.000122 ± 2.4e-05 s⁻¹	5.17e-05 ± 1.1e-05 s⁻¹
U55C U65C	0.000217 ± 5e-05 s⁻¹	–	–	–	0.00011 ± 1.9e-05 s⁻¹	0.000217 ± 3.1e-05 s⁻¹	7.31e-05 ± 1.1e-05 s⁻¹
A36C U54G	< 1e-05 s⁻¹	–	–	–	< 1e-05 s⁻¹	< 1e-05 s⁻¹	–
C11U U31A	0.00134 ± 0.00062 s⁻¹	–	–	9.69e-05 ± 2.6e-05 s⁻¹	0.000431 ± 0.00012 s⁻¹	0.00146 ± 0.00025 s⁻¹	0.000376 ± 6.7e-05 s⁻¹
C34G G37U	< 1e-05 s⁻¹	–	–	–	–	< 1e-05 s⁻¹	< 1e-05 s⁻¹
G62U C67A	< 1e-05 s⁻¹	< 1e-05 s⁻¹	–	–	–	< 1e-05 s⁻¹	–
A6C A14G	0.000252 ± 8.5e-06 s⁻¹	–	1220 ± 210 µM	–	0.000164 ± 3.1e-05 s⁻¹	0.000226 ± 2.3e-05 s⁻¹	–
A15C U30C A52G G63C	< 1e-05 s⁻¹	–	–	–	–	–	–
C16A U54G	0.00103 ± 0.0004 s⁻¹	4.66e-05 ± 1e-05 s⁻¹	–	9.7e-05 ± 1.9e-05 s⁻¹	0.000532 ± 9.9e-05 s⁻¹	0.00141 ± 0.00027 s⁻¹	0.00029 ± 4.8e-05 s⁻¹
A12U G13U	0.000141 ± 9.1e-06 s⁻¹	–	1130 ± 200 µM	–	9.95e-05 ± 1.1e-05 s⁻¹	0.000123 ± 1.8e-05 s⁻¹	5.07e-05 ± 9.6e-06 s⁻¹
